The target of the assay is human PTH receptor on mouse cranial bone-derived osteoblast-like cell strain MC3T3-EI (mouse cell strain (receptor given as 'human PTH receptor')) (UniProt P41593). As to the kind of experiment: cell-based or functional assay.
Chain of UniProt P41593 (P41593 27-591): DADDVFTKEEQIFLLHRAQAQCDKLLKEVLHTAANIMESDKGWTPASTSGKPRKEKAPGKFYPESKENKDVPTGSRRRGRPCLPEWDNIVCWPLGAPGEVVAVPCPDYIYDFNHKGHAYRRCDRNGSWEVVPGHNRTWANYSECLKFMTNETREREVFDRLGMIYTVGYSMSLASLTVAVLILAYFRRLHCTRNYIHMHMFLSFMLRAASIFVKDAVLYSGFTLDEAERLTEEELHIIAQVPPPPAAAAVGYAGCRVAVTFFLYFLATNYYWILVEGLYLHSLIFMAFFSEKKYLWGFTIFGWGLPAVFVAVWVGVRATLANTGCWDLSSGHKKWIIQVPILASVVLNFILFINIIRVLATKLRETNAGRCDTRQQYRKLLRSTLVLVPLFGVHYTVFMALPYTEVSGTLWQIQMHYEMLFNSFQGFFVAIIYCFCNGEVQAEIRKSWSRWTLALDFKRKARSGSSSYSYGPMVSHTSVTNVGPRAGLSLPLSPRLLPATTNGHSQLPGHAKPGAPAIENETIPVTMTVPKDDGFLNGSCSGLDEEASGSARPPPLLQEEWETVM
In the case of Human PTH (1-84) (ligand), the Specific Activity (cAMP production in MC3T3-EI cells) (relative to natural type human PTH) is 1.
The value for [Cys³⁵] human PTH (1-84) (ligand) was 0.6; that for [Leu^8,18] human PTH (1-84) (ligand) was 0.3; that for [Leu⁸] human PTH (1-84) (ligand) was 1.
The value for “[Leu⁸] human PTH (second row with this label in the specific activity table; identity uncertain) (ligand)” was 0.2.
